Experimental data published in the supplement of paper PMC10567573.

B1: ALDH8A1 (parent)
chain: FTGSQPTAERITQLSAPHCKKLSL

Variants of: B1
Test: protein stability index of a GFP-peptide fusion (GPS, HEK-293T) (PSI 1-6); higher = more stable
Conditions: c terminus: a fixed tail appended
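Also: lentivirally expressed fusions sorted by FACS into six bins by GFP to DsRed ratio, PSI derived from sequencing read proportions per bin multiplied by bin number.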

Variant	protein stability index
FTGSQPTAERITQLSAEHCKKLSL [P17E]	2.77
FTGSQPTAERITQLSACHCKKLSL [P17C]	2.13
FTGSQPTAERITQLSAVHCKKLSL [P17V]	1.96
FTGSQPTAERITQLSADHCKKLSL [P17D]	2.8
FTGSQPTAERITQLSARHCKKLSL [P17R]	2.49
FTGSQPTAERITQLSALHCKKLSL [P17L]	1.78
FTGSQPTAERITQLSASHCKKLSL [P17S]	2.18
FTGSQPTAERITQLSAIHCKKLSL [P17I]	2.38
FTGSQPTAERIHQLSAPHCKKLSL [T12H]	1.84
FTGSQPTAERIVQLSAPHCKKLSL [T12V]	2.15
FTGSQPTAERIRQLSAPHCKKLSL [T12R]	2.89
FTGSQPTAERIIQLSAPHCKKLSL [T12I]	1.51
FTGSQPTAERIQQLSAPHCKKLSL [T12Q]	2.36
FTGSQPTAERIWQLSAPHCKKLSL [T12W]	3.11
FTGSQPTAERIPQLSAPHCKKLSL [T12P]	2.32
FTGSQPTAERIFQLSAPHCKKLSL [T12F]	2.86
FTGSQPTAERIKQLSAPHCKKLSL [T12K]	2.3
FTGSQPTAERINQLSAPHCKKLSL [T12N]	2.25
FTGSQPTAERIGQLSAPHCKKLSL [T12G]	2.27
FTGSQPTAERITQLSAPHCKKLFL [S23F]	2.27
FTGSQPTAERITQLSAPHCKKLVL [S23V]	1.93
FTGSQPTAERITQLSAPHCKKLLL [S23L]	1.81
FTGSQPTAERITQLSAPHCKKLDL [S23D]	2.69
FTGSQPTAERITQLSAPHCKKLIL [S23I]	2.15

Variant	protein stability index
FTGSQPTAERITQLSAPHCKKLGL [S23G]	1.97
FTGSQPTAERITQLSAPHCKKLKL [S23K]	2.03
FTGSQPTAERITQLSAPHCKKLWL [S23W]	1.85
FTGSQPTAERITQLSAPHCKKLRL [S23R]	1.79
FTGSQPTAERITQLSAPHCKKLEL [S23E]	2.56
FTGSQPTAERITQLSAPHCQKLSL [K20Q]	2.8
FTGSQPTAERITQLSAPHCIKLSL [K20I]	1.61
FTGSQPTAERITQLSAPHCLKLSL [K20L]	1.84
FTGSQPTAERITQLSAPHCDKLSL [K20D]	2.57
FTGSQPTAERITQLSAPHCMKLSL [K20M]	1.84
FTGSQPTAERITQLSAPHCFKLSL [K20F]	1.52
FTGSQPTAERITQLSAPHCCKLSL [K20C]	2.09
FTGSQPTAERITQLSAPHCNKLSL [K20N]	2.53
FTGSQPTAERITQLSAPHCYKLSL [K20Y]	2.5
FTGSQPTAERITQLSAPHCEKLSL [K20E]	2.75
FTGSQPTAERITQLSAPHCRKLSL [K20R]	1.78
FTGSQPTAERITQLSAPHCKKLSK [L24K]	2.5
FTGSQPTAERITQLSAPHCKKLST [L24T]	2.56
FTGSQPTAERITQLSAPHCKKLSC [L24C]	2.52
FTGSQPTAERITQLSAPHCKKLSG [L24G]	2.67
FTGSQPTAERITQLSAPHCKKLSR [L24R]	2.52
FTGSQPTAERITQLSAPHCKKLSD [L24D]	3.23
FTGSQPTAERITQLSAPHCKKLSW [L24W]	1.93
FTGSQPTFERITQLSAPHCKKLSL [A8F]	1.42

Variant	protein stability index
FTGSQPTWERITQLSAPHCKKLSL [A8W]	3.71
FTGSQPTQERITQLSAPHCKKLSL [A8Q]	2.4
FTGSQPTLERITQLSAPHCKKLSL [A8L]	2.42
FTGSQPTSERITQLSAPHCKKLSL [A8S]	1.9
FTGSQPTDERITQLSAPHCKKLSL [A8D]	2.16
FTGSQPTHERITQLSAPHCKKLSL [A8H]	2.61
FTGSQPTKERITQLSAPHCKKLSL [A8K]	1.8
FTGSQPTTERITQLSAPHCKKLSL [A8T]	2.24
FTGSQPTAERITQLSAPHCKFLSL [K21F]	1.9
FTGSQPTAERITQLSAPHCKELSL [K21E]	2.65
FTGSQPTAERITQLSAPHCKSLSL [K21S]	2.22
FTGSQPTAERITQLSAPHCKTLSL [K21T]	2.06
FTGSQPTAERITQLSAPHCKNLSL [K21N]	2.05
FTGSQPTAERITQLSAPHCKWLSL [K21W]	1.71
FTGSQPTAERITQLSAPHCKRLSL [K21R]	2.41
FTGSQPTAERITQLSAPHCKCLSL [K21C]	1.59
FTGSQPTAERITQLSAPHCKPLSL [K21P]	2.32
FTGSQPTAERITQLSAPHCKYLSL [K21Y]	2.1
FTGSQPTAERITQLSAPHCKKQSL [L22Q]	2.68
FTGSQPTAERITQLSAPHCKKISL [L22I]	2.76
FTGSQPTAERITQLSAPHCKKMSL [L22M]	2.14
FTGSQPTAERITQLSAPHCKKTSL [L22T]	2.61
FTGSQPTAERITQLSAPHCKKDSL [L22D]	2.67
FTGSQPTAERITQLSAPHCKKNSL [L22N]	2.54

Variant	protein stability index
FTGWQPTAERITQLSAPHCKKLSL [S4W]	3.16
FTGQQPTAERITQLSAPHCKKLSL [S4Q]	2.02
FTGMQPTAERITQLSAPHCKKLSL [S4M]	1.98
FTGGQPTAERITQLSAPHCKKLSL [S4G]	1.7
FTGYQPTAERITQLSAPHCKKLSL [S4Y]	2.22
FTGEQPTAERITQLSAPHCKKLSL [S4E]	3.18
FTGAQPTAERITQLSAPHCKKLSL [S4A]	2.56
FTGNQPTAERITQLSAPHCKKLSL [S4N]	2.21
FTESQPTAERITQLSAPHCKKLSL [G3E]	3.56
FTYSQPTAERITQLSAPHCKKLSL [G3Y]	2.54
FTTSQPTAERITQLSAPHCKKLSL [G3T]	2.69
FTQSQPTAERITQLSAPHCKKLSL [G3Q]	2.38
FTGSQPGAERITQLSAPHCKKLSL [T7G]	2.11
FTGSQPHAERITQLSAPHCKKLSL [T7H]	2.02
FTGSQPQAERITQLSAPHCKKLSL [T7Q]	2.86
FTGSQPMAERITQLSAPHCKKLSL [T7M]	2.12
FTGSQPTAERITQPSAPHCKKLSL [L14P]	2.77
FTGSQPTAERITQNSAPHCKKLSL [L14N]	2.4
FTGSQPTAERITQQSAPHCKKLSL [L14Q]	2.57
FTGSQPTAERITQMSAPHCKKLSL [L14M]	1.86
FTGSQPTAERITQRSAPHCKKLSL [L14R]	2.37
FTGSQPTAERITQLIAPHCKKLSL [S15I]	2.28
